The experiment addresses T1, human CD32a (FcgammaRIIa) on washed human platelets (human, UniProt P12318 34-317).
T1 sequence: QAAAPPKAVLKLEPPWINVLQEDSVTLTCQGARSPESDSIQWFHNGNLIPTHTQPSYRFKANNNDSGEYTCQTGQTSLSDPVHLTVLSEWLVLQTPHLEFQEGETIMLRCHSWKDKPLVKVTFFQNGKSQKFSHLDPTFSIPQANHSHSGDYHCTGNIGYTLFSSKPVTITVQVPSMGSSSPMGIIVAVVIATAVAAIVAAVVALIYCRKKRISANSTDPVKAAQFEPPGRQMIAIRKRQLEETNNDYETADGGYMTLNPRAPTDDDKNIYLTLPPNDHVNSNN
Description: cell-based or functional assay.

B1: effector-deficient humanized IV.3.2 IgG1 E269R mAb (antibody)
heavy: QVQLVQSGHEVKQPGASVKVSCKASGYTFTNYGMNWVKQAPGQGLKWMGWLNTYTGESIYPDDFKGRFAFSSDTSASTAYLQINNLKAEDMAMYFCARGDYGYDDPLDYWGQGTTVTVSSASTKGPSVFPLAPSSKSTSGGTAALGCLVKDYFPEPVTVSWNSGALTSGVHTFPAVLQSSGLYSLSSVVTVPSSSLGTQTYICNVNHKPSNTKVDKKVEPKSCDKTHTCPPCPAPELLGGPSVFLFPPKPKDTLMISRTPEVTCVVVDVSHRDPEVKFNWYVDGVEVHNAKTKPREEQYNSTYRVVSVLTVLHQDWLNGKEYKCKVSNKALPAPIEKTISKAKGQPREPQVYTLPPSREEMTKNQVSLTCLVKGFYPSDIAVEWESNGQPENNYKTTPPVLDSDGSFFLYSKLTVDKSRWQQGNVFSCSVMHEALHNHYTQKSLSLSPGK
light: DIVMTQTPLSLPVTPGEPASISCRSSKSLLHTNGNTYLHWYLQKPGQSPQLLIYRMSVLASGVPDRFSGSGSGTDFTLKISRVEAEDVGVYYCMQHLEYPLTFGGGTKVEIKRTVAAPSVFIFPPSDEQLKSGTASVVCLLNNFYPREAKVQWKVDNALQSGNSQESVTEQDSKDSTYSLSSTLTLSKADYEKHKVYACEVTHQGLSSPVTKSFNRGEC
Regarding B1, the “mAb concentration that inhibited 500 nM M90+CD40L IC-induced platelet aggregation” value turned out to be 3 nM.

B2: effector-deficient chimeric IV.3 human IgG2 N297A mAb (antibody)
heavy: QIQLVQSGPELKKPGETVKISCKASGYTFTNYGMNWVKQAPGKGLKWMGWLNTYTGESIYPDDFKGRFAFSSETSASTAYLQINNLKNEDMATYFCARGDYGYDDPLDYWGQGTSVTVSSASTKGPSVFPLAPCSRSTSESTAALGCLVKDYFPEPVTVSWNSGALTSGVHTFPAVLQSSGLYSLSSVVTVPSSNFGTQTYTCNVDHKPSNTKVDKTVERKCCVECPPCPAPPVAGPSVFLFPPKPKDTLMISRTPEVTCVVVDVSHEDPEVQFNWYVDGVEVHNAKTKPREEQFASTFRVVSVLTVVHQDWLNGKEYKCKVSNKGLPAPIEKTISKTKGQPREPQVYTLPPSREEMTKNQVSLTCLVKGFYPSDIAVEWESNGQPENNYKTTPPMLDSDGSFFLYSKLTVDKSRWQQGNVFSCSVMHEALHNHYTQKSLSLSPGK
light: DIVMTQAAPSVPVTPGESVSISCRSSKSLLHTNGNTYLHWFLQRPGQSPQLLIYRMSVLASGVPDRFSGSGSGTAFTLSISRVEAEDVGVFYCMQHLEYPLTFGAGTKLELKRTVAAPSVFIFPPSDEQLKSGTASVVCLLNNFYPREAKVQWKVDNALQSGNSQESVTEQDSKDSTYSLSSTLTLSKADYEKHKVYACEVTHQGLSSPVTKSFNRGEC
Turning to B2, the “platelet aggregation by the combination of chimeric AT-10 hIgG1 E269R, chimeric IV.3 hIgG2 N297A and MDE-8 IgG1 E269R, 300 nM each” value stood at 300 nM.

B3: effector-deficient humanized AT-10 IgG1 E269R mAb (antibody)
heavy: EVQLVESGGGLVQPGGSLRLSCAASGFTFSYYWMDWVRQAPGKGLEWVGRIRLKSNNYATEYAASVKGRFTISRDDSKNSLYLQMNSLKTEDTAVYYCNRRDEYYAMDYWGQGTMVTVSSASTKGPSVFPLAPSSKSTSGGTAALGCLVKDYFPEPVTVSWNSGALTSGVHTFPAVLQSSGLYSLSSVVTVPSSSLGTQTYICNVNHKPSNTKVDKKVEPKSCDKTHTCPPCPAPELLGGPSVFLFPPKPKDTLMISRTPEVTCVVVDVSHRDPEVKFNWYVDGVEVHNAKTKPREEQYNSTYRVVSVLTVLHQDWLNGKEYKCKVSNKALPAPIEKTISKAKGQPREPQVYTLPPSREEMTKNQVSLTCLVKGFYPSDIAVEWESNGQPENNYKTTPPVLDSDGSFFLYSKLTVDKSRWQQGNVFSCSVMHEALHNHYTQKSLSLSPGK
light: EIVLTQSPATLSLSPGERATLSCRASESVDNFGISFLAWYQQKPGQAPRLLIYGASNRATGIPARFSGSGSGTDFTLTISSLEPEDFAVYYCQQSKEVPWTFGQGTKVEIKRTVAAPSVFIFPPSDEQLKSGTASVVCLLNNFYPREAKVQWKVDNALQSGNSQESVTEQDSKDSTYSLSSTLTLSKADYEKHKVYACEVTHQGLSSPVTKSFNRGEC
B3: the “mAb concentration that inhibited 500 nM M90+CD40L IC-induced platelet aggregation” value came out at 15 nM.

Source of the values: US20190211097A1 (ADVENTIST HEALTH SYSTEM SUNBELT, published 2019).
